Biological target: human VISTA, native (on anti-CD3-activated human T cells and PBMCs) (human (homo sapiens))

division of CFSE-labeled human CD3+ T cells with plate-bound anti-CD3 and control rhIgG1Fc, flow cytometry (% CD3+ T cells dividing (72 hours)): > 40
Substance: control recombinant human IgG1 Fc
